Measured values published in PMC6889386.

Target: EGFR on A549-derived exosomes (A-Exo) (UniProt P00533)
Assay: flow cytometry
Conditions: MSN-aptamer conjugates incubated with PKH67-labelled exosomes in cell medium or rat blood (37 C, 1-4 h, static or 100 rpm), buffer details not given

**Q.** How did the binding signal (% positive events) (amino-functionalized (terminus not stated), EDC/NHS-conjugated to MSN-COOH nanoparticle) turn out when “TACCAGTGCGATGCTCAGTGCCGTTTCTTCTCTTTCGCTTTTTTTGCTTTTGAGCATGCTGACGCATTCGGTTGAC [anti-EGFR DNA aptamer on negatively charged MSN (MSN-AP-)]” was run?
**A.** 8.1

**Q.** Which binding signal (% positive events) (carboxyl-functionalized (terminus not stated), EDC/NHS-conjugated to MSN-NH2 nanoparticle) does the source give for “TACCAGTGCGATGCTCAGTGCCGTTTCTTCTCTTTCGCTTTTTTTGCTTTTGAGCATGCTGACGCATTCGGTTGAC [anti-EGFR DNA aptamer on positively charged MSN (MSN-AP)]” here?
**A.** 26.6
